Values quoted from earlier work as cited in US6446032B1, “Designing compounds specifically inhibiting ribonucleic acid by binding to the minor groove” (Massachusetts Institute of Technology, priority 1990, dated 2002).

Tested on: normal cells as well as tumor cells
Details: binds and cleaves all rRNAs

B1: Alpha-sarcin: cytotoxic protein with potent antisarcoma activity, isolated from a mold, that inactivates ribosomes by cleaving the rRNA (protein, UniProt P00655 28-177, looked up)
Ribonuclease alpha-sarcin: AVTWTCLNDQKNPKTNKYETKRLLYNQNKAESNSHHAPLSDGKTGSSYPHWFTNGYDGDGKLPKGRTPIKFGKSDCDRPPKHSKDGNGKTDHYLLEFPTFPDGHDYKFDSKKPKENPGPARVIYTYPNKVFCGIIAHTKENQGELKLCSH
- toxicity to cells: highly toxic to normal cells as well as tumor cells
